Source: paper PMC7538418, “Structural basis for the transition from translation initiation to elongation by an 80S-eIF5B complex” (Nature Communications, 2020)

Target: T1, eIF5B (residues 396–1002) (S. cerevisiae, UniProt P39730 396-1002)
T1 construct: translation initiation factor eIF5B (GTPase), Saccharomyces cerevisiae, residues 396-1002; also called eIF5B:GTP; eIF5B-GDP; source: prepared and characterized as described [11]
T1 sequence (looked up): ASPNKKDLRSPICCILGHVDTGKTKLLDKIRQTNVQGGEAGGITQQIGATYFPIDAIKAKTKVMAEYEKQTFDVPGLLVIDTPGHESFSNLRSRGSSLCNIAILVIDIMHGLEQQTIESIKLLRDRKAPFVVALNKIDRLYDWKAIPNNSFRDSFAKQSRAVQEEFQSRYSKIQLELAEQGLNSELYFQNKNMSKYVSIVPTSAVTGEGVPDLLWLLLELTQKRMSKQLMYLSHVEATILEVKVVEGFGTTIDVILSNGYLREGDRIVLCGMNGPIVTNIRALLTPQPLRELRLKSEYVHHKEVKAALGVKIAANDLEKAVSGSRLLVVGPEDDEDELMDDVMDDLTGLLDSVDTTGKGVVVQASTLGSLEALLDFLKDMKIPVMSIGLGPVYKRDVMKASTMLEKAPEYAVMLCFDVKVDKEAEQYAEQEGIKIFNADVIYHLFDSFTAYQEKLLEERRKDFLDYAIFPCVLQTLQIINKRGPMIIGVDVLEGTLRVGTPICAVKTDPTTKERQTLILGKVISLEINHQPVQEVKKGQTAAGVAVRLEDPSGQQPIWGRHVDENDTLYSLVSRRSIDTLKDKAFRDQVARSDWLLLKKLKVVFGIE
Experiment: cryo-EM structure; 48S PICs mixed with eIF5B:GTP and 60S, frozen ~40 s after mixing; 30 mM HEPES-KOH pH 7.5, 100 mM KOAc, 10 mM Mg(OAc)2, 1 mM GTP:Mg2+; grids at 21 °C; uL16 within the 60S subunit
Conditions: both partners purified

B1: ribosomal protein uL16 (natural protein, S. cerevisiae)
chain: RRPARCYRYQKNKPYPKSRYNRAVPDSKIRIYDLGKKKATVDEFPLCVHLVSNELEQLSSEALEAARICANKYMTTVSGRDAFHLRVRVHPFHVLRINKMLSCAGADRLQQGMRGAWGKPHGLAARVDIGQIIFSVRTKDSNKDVVVEGLRRARYKFPGQQKIILSKKWGFTNLDRPEYLKKREAGEVKDDGAFVKFLSKKGSLENNIREFPEYFA
notes: ribosomal protein uL16, component of the 60S large ribosomal subunit, Saccharomyces cerevisiae; Stood in the assay as a subunit of the whole 60S/80S ribosome, not as an isolated protein; source: in yeast Saccharomyces cerevisiae 60S ribosomal subunits, prepared as described [11]
**Q.** Does B1 bind?
**A.** binds
